*1 amine or outer side, *2 acyl side, *3 side chain or, on linkers, in order; H or OH if unused. Where a SMILES comes first, the peptide text is derived from it. [ ]: non-standard residue; d: D form. The star is where a group is joined. X1 = CO[C@@H](C1CCCN1[*:1])[C@@H](C)C(=O)[*:2]; Dil = CC[C@H](C)[C@H](NC)[C@@H](CC(=O)O)OC; PABC = O=C(OCc1ccc(N[*:1])cc1)[*:2]; Phosphonoacetyl = O=C(CP(=O)(O)O)*; X2 = C[C@@H](N*)[C@@H](O)c1ccccc1; NMeV = CN[C@H](C(=O)O)C(C)C
System: U87 MG glioblastoma cells subcutaneously implanted in nude NMRI mice
Assay: In vivo activity of PhAc-ALLP-PABC-MMAE on U87 MG glioblastoma xenograft
Parameters: species or system mouse
Details: 2 mg/kg iv, once per week
Protocol: The in vivo efficacy of PhAc-ALLP-PABC-MMAE was tested in a mouse GBM model. U87 MG glioblastoma cells were subcutaneously (SC) implanted in nude NMRI mice. In total, 24 adult (9-10 weeks old) nude female NMRI mice (Janvier, France) were subjected to SC tumor cell grafting in the right flank. In total, 5×10^6 U87 MG cells resuspended in PBS plus Matrigel (1:1) were injected in 200 uL final volume. As soon as the tumors were palpable and reached the volume of 200 mm3 the treatment was started. At day zero, mice were randomly divided into 3 groups, based on the tumor volume, in order to have the following experimental sub-cohorts: • control group receiving the vehicle (PBS pH7.2) with a dose of 5 ml/kg, intravenously (iv), once per week (QW); • PhAc-ALLP-PABC-MMAE (2 mg/kg iv, QW); • MMAE (0.9 mg/kg iv, QW).
Treatments were performed once per week for a total of four tail vein administrations/injections (on days 1, 7, 14 and 21). One extra week of observation followed the active treatment phase. During the experiment, tumor volume was measured two times a week and was assessed three-dimensionally with a digital caliper (Mitutoyo, Illinois) using the following formula:
V=4/3π×[(d/2)^2×(D/2)], where d is the minor tumor axis and D is the major tumor axis.

## CC[C@H](C)[C@@H]([C@@H](CC(=O)N1CCCC1[C@H](OC)[C@@H](C)C(=O)N[C@H](C)[C@@H](O)c1ccccc1)OC)N(C)C(=O)[C@@H](NC(=O)[C@H](C(C)C)N(C)C(=O)OCc1ccc(NC(=O)[C@@H]2CCCN2C(=O)[C@H](CC(C)C)NC(=O)[C@H](CC(C)C)NC(=O)[C@H](C)NC(=O)CP(=O)(O)O)cc1)C(C)C (some centres unmarked) [PhAc-ALLP-PABC-MMAE] (Phosphonoacetyl-ALLP[PABC][NMeV]V[Dil][X1]-X2)
  Macroscopical toxicity: without any hint of macroscopical sign of toxicity
Four administrations
  Tumor volume compared to the untreated control group: importantly reduced the tumor volume

From US20240299562A1 (priority 2020, published 2024)
